Measurements: the nanobody polyreactivity screen of Harvey et al. (2022)

Assay: yeast display, Sf9 membrane polyspecificity reagent, FACS + sequencing; frameworks hold sequencing errors
Outline: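 A nanobody's polyreactivity label depends on the gate it was sorted from. Yeast display cells were stained with 10% biotinylated, detergent-solubilized Sf9 membrane reagent for 1 hour at 4 °C, enriched on streptavidin microbeads and sorted by FACS. The low and high (top ~1%) gates were set on anti-HA fluorescence for expression and streptavidin fluorescence for reagent binding.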

| Sequence | polyreactivity (PSR sort gate) |
| --- | --- |
| QVQLVESGGGLVQAGGSLRLSCAAYGSNYSTYTMGWYRTAAGKERQLVAAITRSGGSTYYADSVKGRFTISRDNAKKTDYLQMNSLKPEDTAVFYCAARGQAYSGDRMYYWGLGTQVTVSS | high polyreactivity |
| QVQLVESGGGLVQAGGSLRLSCAASGSIFDVYDMGWYRQAPGKERELVASISDSGSSTYYADSVKGRFTISRDNAKNTVYLQMNSLKPEDTAVYYCAAGYYVDRSIYNYWGQGTQVTVSS | low polyreactivity |
| QVQLVESGGGLVQAGGSLRLSCAASGSIFDFYAMGWYRQAPGKERELVAAITWSGDTTYYADSVKGRFTISRDNAKNTVYLQMNSLKPEDTAVYYCAAEGWYWWYGRDYYWGQGTQVTVSS | high polyreactivity |
| QVQLVESGGGLVQAGGSLRLSCAASGRIFGGYTMGSYRQAPGKERELVAAITRSDGSTTYADSVKGRFTISRDNAKNTVSLQMNSMKPEDTAVYYCAAPRASGYYWGQCTQVTVSS | high polyreactivity |
| QVHLVESGGGLVQAGGSLRLSCAASGRIFYGYAMGWYRQAPGKEREFVAAITVSAGSTYYADSVKGRFTISRDNAKNTVYLQMNSLKPEDTAVYYCAGENGSKEFDYWGQGTQVTVSS | low polyreactivity |
| QVQLVESGGGLVQAGGSLRLSCAASGYTFPFYTMGWYRQAPGKERELVAAISNSGTSTYYADSVKGRFTISRHNAKNTVYLQMNSLKPEDTAVYYSNAGRGTRFVYIDGMDYWGQGTQVTVSS | high polyreactivity |
| QVQLVESGGGLVQAGGSLRLSCAASGGIIEDNMGWYRQAPGKERELVAAIDLRADSTYYADSVKGRFTISRDNAKNTVYLQMNSLKPEDTAVYYCAAGARQGVYRGGDYWGQGTQVTVSS | low polyreactivity |
| QVQLVESGGGLVQAGGSLRLSCAASGFTFRYYAMGWYRQAPGKERELVAAITRSGGSTSYADSVKGRFTISRDNAKNNVYLQMNSLKPEDTAVYYCNTSTSRVPGNGDYWGQGTQVTVSS | high polyreactivity |
| QVQLVESGGGLVQAGGSLRLSCAASGFIIYGYVMGWYRQAPGKERELVAAINSSSGRTYYADSVKGRFTISRDNAKNTVYLQMNSLKPEDTAVYYCAAYYYGSYDGTPYDYWGQGTQVTVSS | low polyreactivity |
| QVQLVESGGGLVQAGGSLRLSCAASGGIFEANVMGWYRQAPGKERELVAAITSGGSTNYADSVKGRFTISRDNAKNTVYLQMNSLKPEDTAVYYCAADRPDGWVDYWGQGTQVTVSS | low polyreactivity |
| QVQLEETGGGLLQAGGSLRLSSAASGRTFVNYAMGWYRQAPGKEREFVAAIDRRSGSTYYADSVKGRFTISRDNAKNTVYLQMTSLKPEDTAVDYCAASPYIYDSWGQGTQVTVSS | low polyreactivity |
| QVQLVESGGGLVQAGGSIRLSCAASGFTFKGNVMGWYRQAPGKERELVAAISRSGGRTYYADSVKGRFTISRDNAKNTVYLQMNSLKPEDTAVYYCAAVVQSSEPVEYDYWGQGTQVTVSS | high polyreactivity |
| QVQLVESGGGLVQAGGSLRLSCAASGYIFRFNAMGWYRQAPGKERELVAVITSGARTYYADSVKGRFTISRDNAKNTFYLLMNSLKPEDTAVYYCNAGARRYLYDYWGQGTQVTVSS | low polyreactivity |
| QVQLVESGGCLVQAGGSLRLSCAASGSTFDYYMGWYRQAPGKERELVAAITYSGGSTYYADSVKGRFTISRDNAKNSVYLQMNSLNPEDTAVYYCAKDRSTFDDFYSNYYWGQGTQVTVSS | low polyreactivity |
| QVQLVESGGGLVQAGGSLRLSCAASGRIFVWYDMGWYRQAPGKERELVAAISWGGGTNYADSVKGRFTISRDNAKNTVYLQMNSLKPEDTAVYYCAAAPSYYYFVRYVPSDIEGYWGQGTQVTVSS | low polyreactivity |
| QVQLVESGGGLVQAGGSLRLSCAASGSTFSGYAMGWYRHAPGKERELVAAISRRGTSTYYADSVKGRFTISRDNAKNTVYLQMNSLKPEDTAVYYCAARPSGYVIGGYGYWGQGTQVTVSS | high polyreactivity |
| QVQLVESGGGLVQAGGSLRLSCAASGSIFGDNAMGWYRQAPGKERELVARISSGGNTYYADSVKGRFSISRDNAMNTVYLQMNSLKPEDTAVYYCAAAIIVRYKKFPYYYWGQGTQVTVSS | high polyreactivity |
| QVQLVESVGGLVQAGGSLRLSCAASGRTIHFNTMGWYRQAPGKERELVAAIRWGGNTYYADSVKGRFTISRDNAKNTVYLQMNSLKPEDTAVYYCAADRWYYFLMYYWGQGTQVTVSS | low polyreactivity |
| QVQLDESGGGLVQAGGSLRLSCADSGRIFDRNALGWYRQAPGKESELVAAISSRGTSTYYADSVKGRFTISRDNAKNTVYLQMNSLKPEDTAVYYCAARPRYASDEFGYWGQGTQVTVSS | low polyreactivity |
| QDQLVESGGGLVQAGGSLRLSCAASGITIYRYVMGCSRQAPGKEREFVASITQSTGSTHYADSVKGRFTISRDNAKNTVYLQMNSLKPEDTAVYYCNAQKIVYYWVTLFPYYYWGQGTQVTVSS | low polyreactivity |
| QVQLVESGGGLVQAGGSLRLRCAASGRTFSSYDKAWYRPAPGKERELVAAITKSGGSTYYADSVKGRFTLSRDKAKNTVYLQMNSLKPDDTAVYYCGYQYYYWGQGTQVTVSS | high polyreactivity |
| QVQLLESGGGLVQAGGSLRLSCAASGRTFTRNAMGWNRQAPGKERELVATIRYSTGTTYYADSVKGRFTISRDNAKNTVYLQMNSLKPEDTAVYYCAARVYRYRGYDSWGKGTQVTVSS | high polyreactivity |

| Sequence | polyreactivity (PSR sort gate) |
| --- | --- |
| QVQLVESGGGLVQAGGSLSLICAASGFTFVDYAMGWYRQAPGKERELVAAITVSGDSTYYADSVKGRFTISRDIAKNTVYFQMNSLKPEDTAVYYCAADPGYYDGGYWGQGTQVTVSS | low polyreactivity |
| QVQLVESGGGLVQAGGSLRLSCAASGRTFFPYAMGWYRQAAGKERELVDAISLDDDTTYYADSVKGRFTISRDTAQNTVYLQMNSLKPEDTAVYYCATDGIVIYGGYYTGYDYWGQGTQVTVSS | high polyreactivity |
| QVQLVESGGGLVQAGGSLRLSCAASGSILYGNDMGWYRQAPGKERELVATITSSDSTYYADSVKGRFTISRDNAKNTVYLQMNSLKPEDTAVYYCAADSSEWLLKDDYWGQGTQVTVSS | low polyreactivity |
| QVQLVESGGVLVQAGGSLRLSCAASGSTFYNNAMGWYRQAPGKERALVATISSGGGSTYYADSVKGRFTISRDNEKNTVYLQMNSLKPEDTAVYYCAAYVLPYGEYDYWGQGTQVTVSS | low polyreactivity |
| QVQLVESGGGLVQAGGSLRLSCAASGSIFKYYTRGWYRQAPGKERELVAAISGSGGTTYYADSVKGRFTISRDNAKNTVYLQMNSLKPEDTAVYYCATAYYRAFRGDYWGQGTQVTVSS | high polyreactivity |
| QVQLVESGGGLVQAGGSLRLSCAASGRTFYYYAMGSYRQAPGKEREFVAAITTRGGSTYYADSVKGRFTISRDNAKNTVYLQMNSLKPEDTAVYYCAARSYYQGGYYYWGQGTQVTVSS | high polyreactivity |
| QVQLVESGGGLVQAGGSLRLSCAASGFIFSSHAMGWYRQAPGKERELVAAISRSGGRTYYADSVKGRFTISRDNAKNTVYLQMNSLKPEDTAVYYCAAKRWWQYYWGQGTQVTVSS | high polyreactivity |
| QVQLVESGGGLVQAGGSLRLSCAASGIIFRVNAMGWYRQAPGKERELVAAISSGGRTYYADSVKGRFTISGDNAKNTVSLQMNSLKPEDTAVYYCNAGRLRYIFKSYDYWGQGTQVSVSS | high polyreactivity |
| QVQLVESGGGLVQAGGSLRLSCAASGRIFVRNAMGWYRQAPGKERELVAAISWSSGGPYYADSVKGRFTISRDNAKNTVYLQMNSLKPDDTAVYYCNADPSRAGDYWGQGTQVTVSS | low polyreactivity |
| QVQLVESGGGLVQAGGSLRLSSAASGSIFGDYVMGWSRQAPGKERELVAAINRGGSTYYADSVKGRFTISRDNAKNTVYLHMNSLKPEDTAVYYCAAGYPSWYYGDPYDSWGQGTQVTVSS | low polyreactivity |
| QVQLVESGGGLVQAGGSLRLICAASGSTFEHYAMGWYRPAPGKERELVAAITRRGGSTYYADSVKGRFTISRDNAKNTVYLQMNSLKPEDTAVYDCNTDLRYSYYLPGYDYWGQGPQVTVSS | high polyreactivity |
| QVQLVESGGGLVQAGGRLRISCAASGSTFKANAMGWYRQSPGKERELVASIRFSAGSTYYADSVKGRFTISRDTAKNTVYLEMNRLKPEDTAVYYCAAGRHVLKRRYDYWGQGTQVTVSS | low polyreactivity |
| QVQLVESGAGLVQAGGRLRLSCAASGSIFWRYAMGWSIQAPGKERELVAAINYSTTRTYYADSVKGRFTISRDNAKNTVYLQMNSLKPVDTAVYYCAADSRVDEGEYWGQGTQVTVSS | high polyreactivity |
| QVQLVESGGGLVQAGGSLRLSCAASGRIFPYNAMGWYRPAPGKEREFVAAITWSGGSTYYADSVKGRFTISRDNAKNTVYLQMNCLKPEDTAVYYCAIRYPWQYNYWGQGTQVTVSS | high polyreactivity |
| QVQLVESGGGLVQAGGSLRLSCAASGSIFDGYAMRWYRQAPGKERELVAAIRWGDGITYYADSVKGRFTISRDIAKNTVYLLMNSLKPVDTAVYYCAAVQHGHEPRVQDSYDYWGQGTQVTVSS | low polyreactivity |
| QVQLVESGGGLVQAGGSLRLSCAASGSIFPIYAMGWSRQPPGKESELVAPISRGGSTNYADSVKGRFTISRDNAKNTVYLQMNSLKPEDTAVYYCAAQSRVFSTWGSTGEYYYWGQGTQVTVSS | low polyreactivity |
| QVQLVESGGGLVQAGGSLRLSCAASGIIFYDYAMGWYRQAPGKERELVAAISRSGGSTYYADSVKGRFTISRDNAKNTVYLQMNSLKPEDTAVYYCNADEVVWGYNYWGQGTQVTVSS | low polyreactivity |
| QVQLVESGGGLVQAGGSLRLSCAASGRTFRTYTMGWYRQAPGKERELVATISWSGGSTNYADSVKGRFTISRDNAKNTVYLQMNSLKPEDTAVYYCNAYVSPRYRGSRYYYWGQGTQVTVSS | high polyreactivity |
| QVQLVESGGGLVQAGGSLRLSCAASGSIFYNNAMGWYRQAPGKERELVAAITIGGSTNYADSVKGRFTISRDNAKNTVYLQMNSLNPEDTAVYYCAAAVLYWVGYGYWGQGTQVTVSS | low polyreactivity |
| QVQLVESGGGLVQAGGSLRLSCAASGSTFRSNAMGWYRQAPGKERVLVAAISRSGGSTYYADSVKGRFTISRDNAKNSVYLQMNSLKPEDTAVYYCAGRYSRDPRTGDYGYCGQGTQVTVSS | low polyreactivity |
| QVQLVESGGGLVQAGGSLRLSCAASGIIFGSYAIGWYRQAPGKERELVAGISRRGDSTYYADSVKGRFTISRDNAKNTVYLQMNSLKPEDTAVYYCAARWFRRSTYLYYYWGQGTQVTVSS | high polyreactivity |
